T1: Trx-His-OsbZIP47 FL (Oryza sativa) (UniProt Q5Z6N9)
T1 sequence: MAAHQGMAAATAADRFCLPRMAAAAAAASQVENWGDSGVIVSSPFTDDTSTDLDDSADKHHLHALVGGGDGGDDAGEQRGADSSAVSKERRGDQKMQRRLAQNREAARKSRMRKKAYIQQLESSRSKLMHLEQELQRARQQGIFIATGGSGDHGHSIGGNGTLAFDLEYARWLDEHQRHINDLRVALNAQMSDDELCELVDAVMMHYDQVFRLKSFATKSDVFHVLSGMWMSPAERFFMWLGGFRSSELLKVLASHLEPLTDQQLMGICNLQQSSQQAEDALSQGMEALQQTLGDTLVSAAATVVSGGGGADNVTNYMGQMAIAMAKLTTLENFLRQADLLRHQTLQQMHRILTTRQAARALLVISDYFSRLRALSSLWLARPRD

B1: Thioredoxin-His-tagged OsbZIP47FL (natural protein, rice (Oryza sativa), UniProt Q5Z6N9 1-385, looked up)
chain: T1 sequence
notes: full-length CDS, amino acid 1 to 385; also called Trx-His-OsbZIP47 FL; Trx-His OsbZIP47; source: E. coli Rosetta (DE3), pET32a, purified

Legend:
[1] = biological target: T1, Trx-His-OsbZIP47 FL (Oryza sativa); assay: MST; details: MST: 10 mM HEPES-KOH pH 8.0, 50 mM NaCl, 0.5% Tween-20, 0.5 mM EDTA, 1 mM MgCl2, 10% glycerol, 80 nM protein, DNA 3.05 nM-100 uM, temperature not stated, EMSA: …
[2] = biological target: the molecule itself; assay: non-reducing SDS-PAGE; purified protein treated with 2 mM diamide, with 20 mM DTT, or with 2 mM diamide followed by 20 mM DTT; non-reducing 10% SDS-PAGE

Molecule | Kd ([1]; oxidized, 1 mM oxidized glutathione) | Kd ([1]; reduced, 20 mM DTT) | binding result [2]
CAGCTGGCCCTGACGTCAGCAACCGG (double strand) [OsFCP1 locus EMSA-371] | 2160 nM | 815 nM | –
B1 | – | – | binds

From PMC9044032, “OsbZIP47 Is an Integrator for Meristem Regulators During Rice Plant Growth and Development” (Frontiers in Plant Science, 2022)
